Experimental data published in paper PMC4851294 (PLoS ONE, 2016).

Legend:
C=C(OP(=O)(O)O)C(=O)O = test: purified protein
[1] = molecular target: T1, 3-deoxy-D-arabino-heptulosonate 7-phosphate synthase (MtuDAH7PS) (Mycobacterium tuberculosis, UniProt O53512); test: X-ray crystal structure (with D/L-Trp); format: binding
T1 construct: gene aroG; chain length 464 residues, homotetramer
T1 sequence (O53512 whole entry): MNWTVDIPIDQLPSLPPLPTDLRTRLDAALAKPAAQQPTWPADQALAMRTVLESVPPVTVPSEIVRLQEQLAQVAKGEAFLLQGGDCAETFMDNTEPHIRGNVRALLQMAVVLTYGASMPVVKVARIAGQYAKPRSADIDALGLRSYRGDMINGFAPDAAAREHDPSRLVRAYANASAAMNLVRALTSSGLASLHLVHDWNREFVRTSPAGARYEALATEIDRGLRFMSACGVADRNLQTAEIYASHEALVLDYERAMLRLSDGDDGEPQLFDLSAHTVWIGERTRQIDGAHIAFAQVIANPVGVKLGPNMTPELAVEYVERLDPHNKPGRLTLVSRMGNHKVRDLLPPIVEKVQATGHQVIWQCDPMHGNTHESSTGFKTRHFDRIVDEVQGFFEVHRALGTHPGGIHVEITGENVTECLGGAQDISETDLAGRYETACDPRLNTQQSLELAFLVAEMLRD

3-deoxy-D-arabino-heptulosonate 7-phosphate synthase (MtuDAH7PS) (Mycobacterium tuberculosis H37Rv)
Km (C=C(OP(=O)(O)O)C(=O)O): 37 ± 4 µM | kcat (C=C(OP(=O)(O)O)C(=O)O): 4.7 ± 0.1 s⁻¹ | kcat/Km (C=C(OP(=O)(O)O)C(=O)O): 130000 ± 20000 M⁻¹ s⁻¹

N[C@@H](Cc1ccccc1)C(=O)O [L-Phe]
X-ray crystal structure (with D/L-Trp) [1]: The Phe site in the structure obtained from these soaking conditions is occupied by L-Phe
